Experimental findings from IntAct's records for PubMed 36126419 are described below.

The chains are these.
B1: 3-mercaptopyruvate sulfurtransferase (Homo sapiens), P25325 (parent)
chain: MASPQLCRALVSAQWVAEALRAPRAGQPLQLLDASWYLPKLGRDARREFEERHIPGAAFFDIDQCSDRTSPYDHMLPGAEHFAEYAGRLGVGAATHVVIYDASDQGLYSAPRVWWMFRAFGHHAVSLLDGGLRHWLRQNLPLSSGKSQPAPAEFRAQLDPAFIKTYEDIKENLESRRFQVVDSRATGRFRGTEPEPRDGIEPGHIPGTVNIPFTDFLSQEGLEKSPEEIRHLFQEKKVDLSKPLVATCGSGVTACHVALGAYLCGKPDVPIYDGSWVEWYMRARPEDVISEGRGKTH

The variants in this test derive from B1. The following applies: with akt1_human AKT1, P31749.
Chain of akt1_human AKT1, P31749 (P31749 whole entry): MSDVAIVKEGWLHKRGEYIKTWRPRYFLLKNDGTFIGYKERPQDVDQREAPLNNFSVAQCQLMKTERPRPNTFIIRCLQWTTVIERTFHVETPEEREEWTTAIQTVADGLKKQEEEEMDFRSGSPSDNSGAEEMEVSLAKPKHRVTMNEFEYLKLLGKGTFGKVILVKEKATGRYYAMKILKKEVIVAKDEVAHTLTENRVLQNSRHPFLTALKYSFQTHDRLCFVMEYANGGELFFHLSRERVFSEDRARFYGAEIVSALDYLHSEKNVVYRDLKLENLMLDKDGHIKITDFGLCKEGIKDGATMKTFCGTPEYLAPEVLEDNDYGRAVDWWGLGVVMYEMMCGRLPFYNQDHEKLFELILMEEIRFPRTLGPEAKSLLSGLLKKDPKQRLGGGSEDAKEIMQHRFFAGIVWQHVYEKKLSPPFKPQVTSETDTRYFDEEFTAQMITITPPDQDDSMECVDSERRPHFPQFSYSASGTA
As for C248A, the “effect of a mutation on the interaction” value is “disrupting interaction strength”.
